Data from patent publication US20190142956A1.
Where no end group is shown, it is not given here.

Experiments:
[1] = biological target: human plasma fibronectin (human) (UniProt P02751); assay: ITC, peptide injected into human plasma FN, PBS pH 7.4, 25 C, triplicate; design: ΔS: unit not given here
[2] = biological target: human plasma fibronectin (human) (UniProt P02751); assay: cell-based or functional assay
[3] = biological target: EDA-containing cellular fibronectin made by human fibroblasts and human proximal tubular epithelial cells (human), P02751; assay: cell-based or functional assay
EDA-containing cellular fibronectin made by human fibroblasts and human proximal tubular epithelial cells (human), P02751, sequence (P02751 32-2477): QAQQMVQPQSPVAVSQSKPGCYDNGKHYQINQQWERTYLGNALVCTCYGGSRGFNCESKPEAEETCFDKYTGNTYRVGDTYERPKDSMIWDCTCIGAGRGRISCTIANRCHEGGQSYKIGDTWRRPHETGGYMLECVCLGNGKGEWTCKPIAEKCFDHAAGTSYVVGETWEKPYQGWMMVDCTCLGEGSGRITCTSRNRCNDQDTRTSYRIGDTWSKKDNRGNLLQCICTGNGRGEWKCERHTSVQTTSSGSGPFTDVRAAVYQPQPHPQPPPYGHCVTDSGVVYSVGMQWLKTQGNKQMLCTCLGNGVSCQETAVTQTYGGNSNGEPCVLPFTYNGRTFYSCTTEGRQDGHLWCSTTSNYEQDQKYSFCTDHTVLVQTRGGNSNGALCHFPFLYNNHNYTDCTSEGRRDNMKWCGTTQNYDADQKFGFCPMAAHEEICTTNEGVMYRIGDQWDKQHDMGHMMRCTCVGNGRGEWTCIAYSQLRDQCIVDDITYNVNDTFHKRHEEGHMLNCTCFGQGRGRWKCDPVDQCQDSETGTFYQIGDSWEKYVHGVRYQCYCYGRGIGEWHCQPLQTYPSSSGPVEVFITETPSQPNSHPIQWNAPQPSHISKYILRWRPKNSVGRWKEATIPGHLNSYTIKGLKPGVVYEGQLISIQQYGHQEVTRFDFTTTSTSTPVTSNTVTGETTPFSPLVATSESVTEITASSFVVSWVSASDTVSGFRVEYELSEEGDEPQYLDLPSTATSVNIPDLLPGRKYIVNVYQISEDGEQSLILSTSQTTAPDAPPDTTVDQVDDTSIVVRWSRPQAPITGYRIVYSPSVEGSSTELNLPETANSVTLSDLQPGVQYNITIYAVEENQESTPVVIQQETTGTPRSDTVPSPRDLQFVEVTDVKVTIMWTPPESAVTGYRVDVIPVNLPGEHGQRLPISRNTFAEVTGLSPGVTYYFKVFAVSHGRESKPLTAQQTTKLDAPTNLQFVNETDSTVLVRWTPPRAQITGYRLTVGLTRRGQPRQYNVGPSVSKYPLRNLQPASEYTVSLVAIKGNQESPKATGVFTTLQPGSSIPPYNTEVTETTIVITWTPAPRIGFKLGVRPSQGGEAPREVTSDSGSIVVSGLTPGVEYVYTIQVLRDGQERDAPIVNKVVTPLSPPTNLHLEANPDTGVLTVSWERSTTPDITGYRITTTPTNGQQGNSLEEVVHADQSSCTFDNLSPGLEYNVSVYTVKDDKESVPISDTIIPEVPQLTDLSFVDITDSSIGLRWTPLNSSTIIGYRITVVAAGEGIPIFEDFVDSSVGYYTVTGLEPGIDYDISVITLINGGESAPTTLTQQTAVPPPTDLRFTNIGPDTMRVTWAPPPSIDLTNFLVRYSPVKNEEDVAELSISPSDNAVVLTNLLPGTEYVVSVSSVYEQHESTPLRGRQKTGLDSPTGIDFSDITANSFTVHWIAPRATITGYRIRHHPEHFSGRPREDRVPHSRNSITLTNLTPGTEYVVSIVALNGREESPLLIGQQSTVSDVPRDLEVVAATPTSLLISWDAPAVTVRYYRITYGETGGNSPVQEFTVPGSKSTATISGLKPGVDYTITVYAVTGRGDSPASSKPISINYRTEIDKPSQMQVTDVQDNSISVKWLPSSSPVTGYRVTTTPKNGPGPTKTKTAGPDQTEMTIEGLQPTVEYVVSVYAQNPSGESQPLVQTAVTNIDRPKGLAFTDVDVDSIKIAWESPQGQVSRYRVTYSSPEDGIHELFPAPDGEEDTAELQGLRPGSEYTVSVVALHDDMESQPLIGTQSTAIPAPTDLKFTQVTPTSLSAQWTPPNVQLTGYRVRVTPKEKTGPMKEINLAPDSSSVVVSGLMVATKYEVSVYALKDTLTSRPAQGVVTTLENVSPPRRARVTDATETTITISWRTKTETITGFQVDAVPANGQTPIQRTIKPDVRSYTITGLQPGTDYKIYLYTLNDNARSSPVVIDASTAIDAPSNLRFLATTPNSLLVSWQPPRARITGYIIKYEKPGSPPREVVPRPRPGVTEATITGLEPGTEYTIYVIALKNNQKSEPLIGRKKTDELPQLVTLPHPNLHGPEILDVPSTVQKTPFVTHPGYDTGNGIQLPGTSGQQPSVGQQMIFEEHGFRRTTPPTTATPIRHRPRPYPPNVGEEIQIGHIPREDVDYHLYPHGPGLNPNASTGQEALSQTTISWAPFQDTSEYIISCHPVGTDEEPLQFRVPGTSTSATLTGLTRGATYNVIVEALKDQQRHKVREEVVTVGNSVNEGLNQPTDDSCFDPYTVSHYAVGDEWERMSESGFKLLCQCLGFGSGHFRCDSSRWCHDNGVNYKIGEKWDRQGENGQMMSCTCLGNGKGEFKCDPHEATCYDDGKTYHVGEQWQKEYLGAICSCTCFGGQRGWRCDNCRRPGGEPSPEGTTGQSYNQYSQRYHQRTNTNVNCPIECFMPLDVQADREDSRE

Row | Molecule | Kd [1] | n [1] | ΔG [1] | ΔH [1] | ΔS [1] | IC50, inhibition of A488-FN fibrillogenesis [2] | percent inhibition of A488-FN fibrillogenesis, doses up to 20 µM [2] | IC50, inhibition of endogenous EDA+-fibronectin fibrillogenesis (human fibroblasts and HK-2 cells) [3]
1 | 10 kDa PEG-FUD (peptide) | 4.6 nM | 1.55 | -11.4 kcal/mol | -34 kcal/mol | -74 | – | – | –
2 | 40 kDa PEG-FUD (peptide) | 14.7 nM | 1.43 | -10.9 kcal/mol | -32.5 kcal/mol | -73 | – | – | –
3 | 20 kDa PEG-FUD (peptide) | 10 nM | 1.63 | -10 kcal/mol | -30 kcal/mol | -66 | 25 to 30 nM | 60% | –
4 | functional upstream domain (FUD) peptide | 6 nM | 1.59 | -11.4 kcal/mol | -31 kcal/mol | -65 | 25 to 30 nM | 60% | –
5 | KDQSPLAGESGETEYITEVYGNQQNPVDIDKKLPNETGFSGNMVETEDT [functional upstream domain (FUD) peptide] | – | – | – | – | – | – | – | 30 nM
6 | {mPEG 20 kDa}-KDQSPLAGESGETEYITEVYGNQQNPVDIDKKLPNETGFSGNMVETEDT (not fully specified) [20 kDa PEG-FUD] | – | – | – | – | – | – | – | 30 nM
